Measured values taken from patent US20210261648A1 (published 2021).
Residue numbers refer to the chain shown, from its start.

T1: FcγRIIa type H extracellular domain with C-terminal His tag (human, UniProt P12318 34-217)
T1 construct: extracellular domain; also called FcgRIIaH; FcγRIIa H
T1 sequence (looked up): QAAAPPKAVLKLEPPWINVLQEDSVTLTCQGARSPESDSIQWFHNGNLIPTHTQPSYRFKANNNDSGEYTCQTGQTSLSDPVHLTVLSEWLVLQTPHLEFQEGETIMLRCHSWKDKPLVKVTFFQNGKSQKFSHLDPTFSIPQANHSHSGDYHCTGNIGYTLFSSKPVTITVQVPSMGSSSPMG

T2: FcγRIIb extracellular domain with C-terminal His tag (human, UniProt P31994 43-217)
T2 construct: extracellular domain; also called FcgRIIb
T2 sequence (looked up): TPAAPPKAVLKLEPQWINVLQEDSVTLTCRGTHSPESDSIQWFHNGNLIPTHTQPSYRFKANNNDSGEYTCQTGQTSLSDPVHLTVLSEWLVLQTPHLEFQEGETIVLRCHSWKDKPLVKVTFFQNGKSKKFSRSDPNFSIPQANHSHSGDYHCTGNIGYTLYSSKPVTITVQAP

T3: FcγRIIa type R (human, UniProt P12318 34-217)
T3 chain: T1 sequence (looked up) with H134R

T4: FcγRIIb (human, UniProt P31994 43-217)
T4 construct: extracellular domain; also called FcgRIIb; CD32B
T4 sequence (looked up): T2 sequence (looked up)

B1: IL6R-BP084/IL6R-L (antibody, human IgG1, kappa)
heavy: QVQLQESGPGLVKPSETLSLTCAVSGHSISHDHAWSWVRQPPGEGLEWIGFISYSGITNYNPSLQGRVTISRDNSKNTLYLQMNSLRAEDTAVYYCARSLARTTAMDYWGEGTLVTVSSASTKGPSVFPLAPSSKSTSGGTAALGCLVKDYFPEPVTVSWNSGALTSGVHTFPAVLQSSGLYSLSSVVTVPSSSLGTQTYICNVNHKPSNTKVDKKVEPKSCDKTHTCPPCPAPELLGGDSVFLFPPKPKDTLMISRTPEVTCVVVDVSHEDPEVKFNWYVDGVEVHNAKTKPREEQYNSTYRVVSVLTVLHQDWLNGKEYKCKMSNKALPKPIEKTISKAKGQPREPQVYTLPPSRDELTKNQVSLTCLVKGFYPSDIAVEWESNGQPENNYKTTPPVLDSDGSFFLYSKLTVDKSRWQQGNVFSCSVMHEALHNHYTQESLSLSP
light: not shown
B2: IL6R-BP087/IL6R-L (antibody, human IgG1, kappa)
heavy: B1 heavy with L236Y, M325V
light: not shown
B3: IL6R-BP190/IL6R-L (antibody, human IgG1, kappa)
heavy: B1 heavy with G239D, H270D, P273G, M325V
light: not shown
B4: IL6R-BP145/IL6R-L (antibody, human IgG1, kappa)
heavy: B1 heavy with L236Y, G239D, M325V, K332A
light: not shown
B5: IL6R-BP089/IL6R-L (antibody, human IgG1, kappa)
heavy: B1 heavy with L236Y, M325V, K328A
light: not shown
B6: IL6R-BP151/IL6R-L (antibody, human IgG1, kappa)
heavy: B1 heavy with E235D, L236Y, G239D, M325V, K328A, K332R
light: not shown
B7: IL6R-BP147/IL6R-L (antibody, human IgG1, kappa)
heavy: B1 heavy with L236Y, G239D, M325V, K328A
light: not shown
B8: IL6R-BP178/IL6R-L (antibody, human IgG1, kappa)
heavy: B1 heavy with E235D, G239D, P273G, M325V
light: not shown
B9: IL6R-BP148/IL6R-L (antibody, human IgG1, kappa)
heavy: B1 heavy with E235D, L236Y, G239D, M325V, K328A
light: not shown
B10: IL6R-BP088/IL6R-L (antibody, human IgG1, kappa)
heavy: B1 heavy with G239D, M325V, K328A
light: not shown
B11: IL6R-BP146/IL6R-L (antibody, human IgG1, kappa)
heavy: B1 heavy with L236Y, G239D, M325V, K328A, K332A
light: not shown
B12: IL6R-BP195/IL6R-L (antibody, human IgG1, kappa)
heavy: B1 heavy with E235D, L236Y, G239D, H270D, P273G, Y298D, M325V, K328A
light: not shown
B13: IL6R-BP130/IL6R-L (antibody, human IgG1, kappa)
heavy: B1 heavy with E235D
light: not shown
B14: IL6R-BP131/IL6R-L (antibody, human IgG1, kappa)
heavy: B1 heavy with E235D, G239D, M325V
light: not shown
B15: IL6R-BP494/IL6R-L (antibody, human IgG1, kappa)
heavy: B1 heavy with G239D, S269A, H270E, P273G, Y298D, M325V, K332R
light: not shown
notes: Alterations in EU numbering, introduced into IL6R-B3
B16: IL6R-BP493/IL6R-L (antibody, human IgG1, kappa)
heavy: B1 heavy with V266I, S269A, H270E, P273G, Y298D, M325V, K332A
light: not shown
notes: as for B15
B17: IL6R-BP504/IL6R-L (antibody, human IgG1, kappa)
heavy: B1 heavy with E235D, G239D, V266I, S269A, H270E, P273G, E274P, M325V, K332A
light: not shown
notes: as for B15
B18: IL6R-BP500/IL6R-L (antibody, human IgG1, kappa)
heavy: B1 heavy with G239D, V266I, S269A, H270E, P273G, Y298D, M325V, K332A
light: not shown
notes: as for B15
B19: IL6R-BP509/IL6R-L (antibody, human IgG1, kappa)
heavy: B1 heavy with E235D, G239D, V266I, S269A, H270E, P273G, E274D, Y298D, M325V, K332A
light: not shown
notes: as for B15
B20: IL6R-BP549/IL6R-L (antibody, human IgG1, kappa)
heavy: B1 heavy with G239D, S269G, H270E, P273G, M325V, K332R
light: not shown
notes: as for B15
B21: IL6R-BP501/IL6R-L (antibody, human IgG1, kappa)
heavy: B1 heavy with G239D, V266I, S269A, H270E, P273G, M325V, K332A
light: not shown
notes: as for B15
B22: IL6R-BP508/IL6R-L (antibody, human IgG1, kappa)
heavy: B1 heavy with E235D, G239D, V266I, S269A, H270E, P273G, E274P, Y298D, M325V, K332A
light: not shown
notes: as for B15
B23: IL6R-BP505/IL6R-L (antibody, human IgG1, kappa)
heavy: B1 heavy with E235D, G239D, V266I, S269A, H270E, P273G, E274D, M325V, K332A
light: not shown
notes: as for B15
B24: IL6R-BP559/IL6R-L (antibody, human IgG1, kappa)
heavy: B1 heavy with V266I, S269A, H270E, P273G, E274D, Y298D, M325V, K332A
light: not shown
notes: as for B15
B25: IL6R-BP495/IL6R-L (antibody, human IgG1, kappa)
heavy: B1 heavy with G239D, S269G, H270E, P273G, Y298D, M325V, K332R
light: not shown
notes: as for B15

Target: T1, FcγRIIa type H extracellular domain …
Assay: SPR, captured antibody, FcgR analyte
Method: (§1) Relative binding activities were calculated for the results of analyzing interactions with the respective FcγRs according to the following method.

Binder	relative binding activity
B1	162 relative (IL6R-BF648/IL6R-L = 100)
B2	179 relative (IL6R-BF648/IL6R-L = 100)
B3	224 relative (IL6R-BF648/IL6R-L = 100)
B4	224 relative (IL6R-BF648/IL6R-L = 100)
B5	186 relative (IL6R-BF648/IL6R-L = 100)
B6	621 relative (IL6R-BF648/IL6R-L = 100)
B7	582 relative (IL6R-BF648/IL6R-L = 100)
B8	259 relative (IL6R-BF648/IL6R-L = 100)
B9	462 relative (IL6R-BF648/IL6R-L = 100)
B10	166 relative (IL6R-BF648/IL6R-L = 100)
B11	203 relative (IL6R-BF648/IL6R-L = 100)
B12	344 relative (IL6R-BF648/IL6R-L = 100)
B13	224 relative (IL6R-BF648/IL6R-L = 100)
B14	253 relative (IL6R-BF648/IL6R-L = 100)

Target: T5, FcγRIa extracellular domain with C-terminal His tag (human, UniProt P12314 16-292)
T5 construct: also called FcgRIa
Assay: SPR, captured antibody, FcgR analyte
Method: as §1

T5 sequence (P12314 16-292): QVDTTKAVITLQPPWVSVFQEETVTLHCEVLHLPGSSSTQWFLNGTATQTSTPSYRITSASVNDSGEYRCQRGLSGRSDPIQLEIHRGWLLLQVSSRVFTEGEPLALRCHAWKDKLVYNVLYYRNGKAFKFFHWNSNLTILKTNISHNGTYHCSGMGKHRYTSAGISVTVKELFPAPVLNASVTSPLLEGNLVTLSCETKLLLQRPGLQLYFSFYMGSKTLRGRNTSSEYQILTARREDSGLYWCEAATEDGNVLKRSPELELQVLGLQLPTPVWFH

Binder	relative binding activity
B1	109 relative (IL6R-BF648/IL6R-L = 100)
B2	33 relative (IL6R-BF648/IL6R-L = 100)
B3	50 relative (IL6R-BF648/IL6R-L = 100)
B4	41 relative (IL6R-BF648/IL6R-L = 100)
B5	43 relative (IL6R-BF648/IL6R-L = 100)
B6	39 relative (IL6R-BF648/IL6R-L = 100)
B7	24 relative (IL6R-BF648/IL6R-L = 100)
B9	33 relative (IL6R-BF648/IL6R-L = 100)
B10	25 relative (IL6R-BF648/IL6R-L = 100)
B12	68 relative (IL6R-BF648/IL6R-L = 100)
B13	104 relative (IL6R-BF648/IL6R-L = 100)
B14	33 relative (IL6R-BF648/IL6R-L = 100)

Target: T2, FcγRIIb extracellular domain with …
Assay: SPR, captured antibody, FcgR analyte
Method: as §1

Binder	relative binding activity
B1	141 relative (IL6R-BF648/IL6R-L = 100)
B2	137 relative (IL6R-BF648/IL6R-L = 100)
B4	152 relative (IL6R-BF648/IL6R-L = 100)
B5	147 relative (IL6R-BF648/IL6R-L = 100)
B7	177 relative (IL6R-BF648/IL6R-L = 100)
B8	179 relative (IL6R-BF648/IL6R-L = 100)
B9	176 relative (IL6R-BF648/IL6R-L = 100)
B10	161 relative (IL6R-BF648/IL6R-L = 100)
B11	156 relative (IL6R-BF648/IL6R-L = 100)

Target: T6, FcγRIa (human, UniProt P12314 16-292)
T6 construct: Whole entry named; also called FcgRIa; CD64A
Assay: SPR (Biacore), captured antibody, soluble FcγR

T6 sequence (P12314 16-292): as above

Binder	Kd [µM]
B15	0.0039
B16	0.00082
B17	0.0014
B18	0.0023
B19	0.0011
B20	0.018
B21	0.0021
B22	0.0014
B23	0.0011
B24	0.0011
B25	0.0083

Target: T3, FcγRIIa type R
Assay: SPR (Biacore), captured antibody, soluble FcγR

Binder	Kd [µM]
B15	0.25
B16	1.1
B17	0.45
B18	0.72
B19	0.52
B20	0.57
B21	0.63
B22	0.54
B23	0.43
B24	1.6
B25	0.49

Target: T4, FcγRIIb
Assay: SPR (Biacore), captured antibody, soluble FcγR

Binder	Kd [µM]
B15	0.0066
B16	0.021
B17	0.024
B18	0.024
B19	0.018
B20	0.016
B21	0.025
B22	0.021
B23	0.021
B24	0.028
B25	0.0097

Target: T3, FcγRIIa type R
Assay: SPR (Biacore); parent = IL6R-B3/IL6R-L

Binder	KD(IIaR) of the parent polypeptide/KD(IIaR) of the altered polypeptide [fold]
B15	4.3
B16	1
B17	2.4
B18	1.5
B19	2.1
B20	1.9
B21	1.7
B22	2
B23	2.6
B24	0.7
B25	2.2

Target: T4, FcγRIIb
Assay: SPR (Biacore); parent = IL6R-B3/IL6R-L

Binder	KD(IIb) of the parent polypeptide/KD(IIb) of the altered polypeptide [fold]
B15	471
B16	147
B17	128
B18	128
B19	174
B20	196
B21	123
B22	149
B23	145
B24	110
B25	321
